167 variants from the Human Domainome abundance scans (Beltran et al. 2025) can be followed below.

± gives the uncertainty stated by the source.

First the molecules themselves.
B1: Poly(rC)-binding protein 1, residues 278 to 350; numbered along this chain, Q15365 (parent)
chain: TQTTHELTIPNNLIGCIIGRQGANINEIRQMSGAQIKIANPVEGSSGRQVTITGSAASISLAQYLINARLSSE

In the data set the parent is B1. In words: abundance fitness (aPCA) (normalised: wild type 0, dead -1); higher = more abundant; growth selection in yeast, the domain comes from the species named. The note with it: Homo sapiens.
On to Y64W, for which the abundance fitness was -0.209 ± 0.11.
Consider Y64M, for which the abundance fitness is -0.098 ± 0.11.
In the case of Y64H it was 0.064 ± 0.14; in that of Y64Q, 0.14 ± 0.098; in that of Y64T, 0.287 ± 0.059.
Y64C: the abundance fitness is 0.195 ± 0.09.
The same measure for Y64S: 0.24 ± 0.05; for Y64L: -0.031 ± 0.078.
With Y64P, the abundance fitness was -0.312 ± 0.13.
For Y64G, the abundance fitness turned out to be 0.212 ± 0.038.
As to Y64E, the abundance fitness was determined as 0.298 ± 0.053.
In the case of Y64V it was 0.121 ± 0.05.
The same measure for Y64F: -0.266 ± 0.23; for Y64N: 0.328 ± 0.082; for Y64D: 0.411 ± 0.072.
With Y64K, the abundance fitness worked out at 0.233 ± 0.074.
The same measure for Y64R: 0.28 ± 0.043.
L65E: the abundance fitness was -0.191 ± 0.08.
The same measure for L65D: -0.419 ± 0.23; for L65P: -0.779 ± 0.25.
In the case of L65S it was -0.582 ± 0.13.
Consider L65K, for which the abundance fitness was -0.422 ± 0.25.
As to L65A, the abundance fitness was 0.076 ± 0.056.
The same measure for L65Q: -0.442 ± 0.14; for L65G: -0.416 ± 0.056; for L65Y: -0.093 ± 0.13.
For L65R, the abundance fitness was -0.689 ± 0.1.
The same measure for L65V: -0.789 ± 0.18.
In the case of L65T it was -0.462 ± 0.14; in that of L65M, -0.36 ± 0.18.
For the variant L65W, the abundance fitness is -0.166 ± 0.066.
In the case of E73A it was 0.078 ± 0.42.
In the case of E73C it was -0.14 ± 0.17.
As to R69T, the abundance fitness is -0.079 ± 0.093.
As to R69H, the abundance fitness is -0.405 ± 0.17.
Consider R69G, for which the abundance fitness is -0.626 ± 0.14.
Turning to R69Q, the abundance fitness is -0.016 ± 0.18.
R69C: the abundance fitness was -0.344 ± 0.18.
Regarding R69K, the abundance fitness was determined as 0.119 ± 0.12.
In the case of R69F it was 0.355 ± 0.26.
For the variant R69A, the abundance fitness is -0.067 ± 0.1.
In the case of R69W, the abundance fitness is -0.596 ± 0.18.
Regarding R69I, the abundance fitness was -0.258 ± 0.24.
Turning to R69E, the abundance fitness is -0.371 ± 0.16.
As to R69V, the abundance fitness was -0.479 ± 0.14.
As to R69L, the abundance fitness was -0.328 ± 0.11.
The same measure for R69M: -0.414 ± 0.21; for R69S: -0.081 ± 0.096; for R69P: -0.701 ± 0.22.
N67Q: the abundance fitness was -0.32 ± 0.11.
As for N67G, the abundance fitness was -0.082 ± 0.051.
The same measure for N67R: -0.147 ± 0.057.
The same measure for N67D: 0.066 ± 0.099; for N67P: -0.782 ± 0.26; for N67T: -0.148 ± 0.12.
In the case of N67Y it was 0.002 ± 0.13.
As to N67M, the abundance fitness was -0.135 ± 0.089.
Take N67L: the abundance fitness is -0.18 ± 0.079.
Turning to N67V, the abundance fitness was -0.504 ± 0.11.
The same measure for N67S: -0.019 ± 0.072; for N67F: 0.034 ± 0.18; for N67A: -0.152 ± 0.079.
The same measure for N67I: -0.194 ± 0.22; for N67K: -0.137 ± 0.12.
The same measure for N67W: -0.208 ± 0.078.
As to N67H, the abundance fitness was -0.146 ± 0.13.
Regarding N67C, the abundance fitness was -0.193 ± 0.26.
For the variant N67E, the abundance fitness was -0.082 ± 0.075.
The same measure for S71W: -0.195 ± 0.075.
In the case of S71V it was -0.14 ± 0.061.
S71T: the abundance fitness was -0.092 ± 0.068.
In the case of S71L it was -0.184 ± 0.054.
In the case of S71Q it was -0.194 ± 0.11; in that of S71F, -0.21 ± 0.14.
In the case of S71A, the abundance fitness was -0.037 ± 0.051.
For S71K, the abundance fitness was -0.03 ± 0.09.
Take S71P: the abundance fitness was determined as 0.024 ± 0.06.
As for S71G, the abundance fitness was -0.062 ± 0.049.
For the variant S71I, the abundance fitness was -0.434 ± 0.24.
In the case of S71H it was -0.371 ± 0.28; in that of S71D, -0.044 ± 0.1.
The same measure for S71M: 0.105 ± 0.074; for S71R: -0.056 ± 0.041.
Turning to S71Y, the abundance fitness was -0.258 ± 0.14.
The same measure for Q63M: -0.04 ± 0.07.
For the variant Q63K, the abundance fitness is 0.223 ± 0.069.
In the case of Q63D it was 0.091 ± 0.12; in that of Q63G, -0.264 ± 0.058.
Consider Q63W, for which the abundance fitness was -0.28 ± 0.082.
Regarding Q63Y, the abundance fitness was -0.469 ± 0.22.
On to Q63I, for which the abundance fitness turned out to be 0.064 ± 0.12.
As to Q63P, the abundance fitness is -1.17 ± 0.27.
The same measure for Q63L: 0.116 ± 0.06; for Q63F: -0.175 ± 0.12.
In the case of Q63H it was -0.124 ± 0.23.
As to Q63C, the abundance fitness is -0.078 ± 0.11.
With Q63E, the abundance fitness is -0.002 ± 0.061.
In the case of Q63T it was 0.006 ± 0.053; in that of Q63A, -0.077 ± 0.045; in that of Q63V, -0.019 ± 0.046.
With A62K, the abundance fitness was -0.888 ± 0.14.
The same measure for A62F: -0.657 ± 0.26; for A62N: -0.828 ± 0.4.
A62V: the abundance fitness is -0.448 ± 0.07.
The same measure for A62E: -0.902 ± 0.15; for A62P: -0.606 ± 0.1.
In the case of A62T, the abundance fitness was -0.794 ± 0.12.
Turning to A62R, the abundance fitness is -0.734 ± 0.083.
For the variant A62Q, the abundance fitness is -0.78 ± 0.29.
As for A62W, the abundance fitness was -0.882 ± 0.31.
As for A62G, the abundance fitness was -0.622 ± 0.071.
With A62M, the abundance fitness is -0.948 ± 0.16.
In the case of A62D it was -0.711 ± 0.24.
Turning to A62C, the abundance fitness is -0.768 ± 0.23.
Turning to A68H, the abundance fitness came to 0.188 ± 0.2.
For the variant A68W, the abundance fitness was -0.581 ± 0.17.
The same measure for A68S: 0.048 ± 0.078.
A68L: the abundance fitness was -0.206 ± 0.084.
Consider A68M, for which the abundance fitness is -0.032 ± 0.1.
As to A68C, the abundance fitness came to 0.271 ± 0.14.
In the case of A68Q it was 0.14 ± 0.11; in that of A68E, 0.21 ± 0.081.
For the variant A68F, the abundance fitness is -0.459 ± 0.35.
In the case of A68I it was -0.296 ± 0.21.
In the case of A68V it was -0.185 ± 0.07.
The same measure for A68G: -0.122 ± 0.056.
For the variant A68R, the abundance fitness is -0.001 ± 0.061.
The same measure for A68N: 0.163 ± 0.14; for I66R: -0.996 ± 0.23; for I66C: -0.188 ± 0.2.
Regarding I66G, the abundance fitness was -0.594 ± 0.13.
In the case of I66L it was -0.076 ± 0.13; in that of I66V, -0.285 ± 0.1; in that of I66P, -0.459 ± 0.15.
In the case of I66H it was 0.299 ± 0.49; in that of I66Q, -1.16 ± 0.46; in that of I66F, -0.414 ± 0.22.
In the case of I66A it was -0.438 ± 0.1; in that of I66W, -1.2 ± 0.35.
As to I66M, the abundance fitness is -0.094 ± 0.16.
Regarding I66S, the abundance fitness was -0.721 ± 0.2.
For S72D, the abundance fitness was -0.107 ± 0.25.
Turning to S72T, the abundance fitness was found to be 0.222 ± 0.087.
The same measure for S72N: 0.161 ± 0.23.
Turning to S72Y, the abundance fitness is -0.152 ± 0.28.
In the case of S72K it was -0.072 ± 0.22; in that of S72M, -0.058 ± 0.13; in that of S72C, -0.052 ± 0.16.
For S72V, the abundance fitness is -0.072 ± 0.094.
The same measure for S72A: -0.039 ± 0.093; for S72H: -0.07 ± 0.2; for S72R: 0.123 ± 0.077.
With S72P, the abundance fitness was -0.562 ± 0.38.
In the case of S72I it was -0.448 ± 0.39.
The same measure for S72E: 0.222 ± 0.11.
In the case of S72L it was -0.114 ± 0.088.
S72G: the abundance fitness is -0.031 ± 0.071.
In the case of S72Q it was -0.401 ± 0.26; in that of L70V, -0.05 ± 0.15.
With L70M, the abundance fitness is -0.228 ± 0.26.
The same measure for L70R: -0.53 ± 0.22.
In the case of L70I it was -0.217 ± 0.36; in that of L70W, -0.521 ± 0.29.
Turning to L70P, the abundance fitness was -0.499 ± 0.25.
In the case of L70N it was -0.465 ± 0.48; in that of L70K, -0.378 ± 0.46.
In the case of L70S it was -0.614 ± 0.34.
